Experimental data reported in PMC7069958, “Multi-level and lineage-specific interactomes of the Hox transcription factor Ubx contribute to its functional specificity”.

Biological target: mB*UbxN51A (UniProt P83949-2 1-380, N336A)
Experiment: EMSA; 20 mM HEPES pH 7.9, 1.4 mM MgCl2, 1 mM ZnSO4, 40 mM KCl, 0.1 mM EDTA, 5% glycerol, 0.2 ug poly(dI-dC), 0.1 ug BSA, 10 mM DTT, 0.1% NP40, 30 ul, 20 min; gel 6% acrylamide 0.5x TBE at 4 C
Settings: protein: recombinant; tags: His, myc-BirA* (N-terminal fusion); label: 5'-Cy5; blunt

Chain of mB*UbxN51A (P83949 other isoform, or with tags, fused parts or gaps N336A): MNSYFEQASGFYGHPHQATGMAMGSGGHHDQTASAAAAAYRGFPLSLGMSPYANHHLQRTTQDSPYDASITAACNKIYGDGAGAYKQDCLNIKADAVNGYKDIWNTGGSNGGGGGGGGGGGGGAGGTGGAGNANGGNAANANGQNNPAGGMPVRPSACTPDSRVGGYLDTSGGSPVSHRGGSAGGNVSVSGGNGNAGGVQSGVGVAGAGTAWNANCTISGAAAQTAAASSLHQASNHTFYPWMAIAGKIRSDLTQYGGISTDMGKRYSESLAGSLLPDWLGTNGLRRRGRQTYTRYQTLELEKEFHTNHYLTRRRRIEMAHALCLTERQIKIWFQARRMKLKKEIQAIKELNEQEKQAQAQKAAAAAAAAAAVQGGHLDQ

B1: Ubx consensus site probe (dsDNA)
DNA 1: TTCAGAGCGAATGATTTATGACCGGTCAAG
DNA 2: CTTGACCGGTCATAAATCATTCGCTCTGAA
Question: Does B1 bind?
Answer: Result: no binding
